The target in one test is VRC01 UCA (human). The test can be described thus: SPR. On the technique in general: In SPR one partner is held on a chip, and binding of the other changes the refractive index at the surface.
Another test deals with VRC01 UCA. The test can be described thus: BLI. Particulars: read at the end of association (300 s), read off a plot.

Data on four substances can be found in PMC6303191.

Chain of VRC01 UCA (human) (heavy, as listed by the source, chain 1 of 2): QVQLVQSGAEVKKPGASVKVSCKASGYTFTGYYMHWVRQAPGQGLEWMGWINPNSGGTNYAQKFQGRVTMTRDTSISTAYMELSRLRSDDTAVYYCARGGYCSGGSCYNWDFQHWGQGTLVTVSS
Chain of VRC01 UCA (human) (light, as listed by the source, chain 2 of 2): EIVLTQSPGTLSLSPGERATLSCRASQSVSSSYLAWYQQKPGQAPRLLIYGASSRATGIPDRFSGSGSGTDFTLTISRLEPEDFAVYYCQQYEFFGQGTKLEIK

Regarding “BG505 SOSIP v4.1-GT1 trimer (from UniProt Q2N0S6 1-860) (complex)”, in the test with VRC01 UCA (human), the Kd was determined as 3000 nM, the dissociation rate constant (koff) came out at 0.018 s⁻¹ and the kon stood at 8000 M⁻¹ s⁻¹.
Take TM4ΔV1-3 (24-mer) D268R; E370A: the response with VRC01 UCA (VRC01 UCA IgG x 24-mer, parent: est. 0.68) amounted to 0 nm.
In the case of TM4ΔV1-3 (heptamer) D368R; E370A, the response in the test with VRC01 UCA (VRC01 UCA IgG x heptamer, parent: est. 0.43) is 0 nm.
Turning to TM4ΔV1-3 (monomer) (domain or fragment), the Kd with VRC01 UCA (human) is more than 100000 nM.

As usually defined, the Kd is the equilibrium constant for the complex coming apart. A low value points to a tighter complex. As usually defined, the koff is a measure of how fast the partners let go of each other. Lower therefore signals a long-lived complex. By kon is commonly meant the second-order rate constant of association. Read a high kon as fast association.
